The values that follow come from PMC3117075 (2011).

Non-standard residues stand in square brackets, D forms with d. pT = C[C@@H](OP(=O)(O)O)[C@H](N)C(=O)O; pS = N[C@@H](COP(=O)(O)O)C(=O)O Some results are limits rather than exact numbers.

Assay [1] has as its target T1, Ac-pSPTF-COOH (peptide 18) (Homo sapiens, UniProt Q9BX63, SMILES CC(=O)N[C@@H](COP(=O)(O)O)C(=O)N1CCC[C@H]1C(=O)N[C@H](C(=O)N[C@@H](Cc1ccccc1)C(=O)O)[C@@H](C)O).
T1 chain: Ac-[pS]PTF-OH
Kind of assay: ITC.

In assay [2] the target is T2, Ac-pSPAF-CONH2 (peptide 6) (Homo sapiens, UniProt Q9BX63, SMILES CC(=O)N[C@@H](COP(=O)(O)O)C(=O)N1CCC[C@H]1C(=O)N[C@@H](C)C(=O)N[C@@H](Cc1ccccc1)C(N)=O).
T2 chain: Ac-[pS]PAF-NH2
Kind of assay: fluorescence polarization competition.

The target in assay [3] is T1, Ac-pSPTF-COOH (peptide 18). Kind of assay: fluorescence polarization competition.
The target of assay [4] is T3, Ac-pSPVF-CONH2 (peptide 7) (Homo sapiens, UniProt Q9BX63, SMILES CC(=O)N[C@@H](COP(=O)(O)O)C(=O)N1CCC[C@H]1C(=O)N[C@H](C(=O)N[C@@H](Cc1ccccc1)C(N)=O)C(C)C).
T3 chain: Ac-[pS]PVF-NH2
Kind of assay: fluorescence polarization competition.

Assay [5] deals with T4, Ac-pSPSF-CONH2 (peptide 8) (Homo sapiens, UniProt Q9BX63, SMILES CC(=O)N[C@@H](COP(=O)(O)O)C(=O)N1CCC[C@H]1C(=O)N[C@@H](CO)C(=O)N[C@@H](Cc1ccccc1)C(N)=O).
T4 chain: Ac-[pS]PSF-NH2
Kind of assay: fluorescence polarization competition.

The target in assay [6] is T5, Ac-pSPVF-COOH (peptide 19) (Homo sapiens, UniProt Q9BX63, SMILES CC(=O)N[C@@H](COP(=O)(O)O)C(=O)N1CCC[C@H]1C(=O)N[C@H](C(=O)N[C@@H](Cc1ccccc1)C(=O)O)C(C)C).
T5 chain: Ac-[pS]PVF-OH
Description: fluorescence polarization competition.

Assay [7] concerns the target T6, Ac-pSPPF-CONH2 (peptide 15) (Homo sapiens, UniProt Q9BX63, SMILES CC(=O)N[C@@H](COP(=O)(O)O)C(=O)N1CCC[C@H]1C(=O)N1CCC[C@H]1C(=O)N[C@@H](Cc1ccccc1)C(N)=O).
T6 chain: Ac-[pS]PPF-NH2
Description: fluorescence polarization competition.

Assay [8] concerns the target T7, Ac-pSATF-CONH2 (peptide 5) (Homo sapiens, UniProt Q9BX63, SMILES CC(=O)N[C@@H](COP(=O)(O)O)C(=O)N[C@@H](C)C(=O)N[C@H](C(=O)N[C@@H](Cc1ccccc1)C(N)=O)[C@@H](C)O).
T7 chain: Ac-[pS]ATF-NH2
Kind of assay: fluorescence polarization competition.

Assay [9] has as its target T8, Ac-pSPTF-CONH2 (peptide 1) (Homo sapiens, UniProt Q9BX63, SMILES CC(=O)N[C@@H](COP(=O)(O)O)C(=O)N1CCC[C@H]1C(=O)N[C@H](C(=O)N[C@@H](Cc1ccccc1)C(N)=O)[C@@H](C)O).
T8 chain: Ac-[pS]PTF-NH2
Description: fluorescence polarization competition.

Assay [10] concerns the target T9, Ac-EPTF-CONH2 (peptide 2) (Homo sapiens, UniProt Q9BX63).
T9 chain: Ac-EPTF-NH2
Description: fluorescence polarization competition.

Assay [11] addresses T10, Ac-pTPTF-CONH2 (peptide 4) (Homo sapiens, UniProt Q9BX63, SMILES CC(=O)N[C@H](C(=O)N1CCC[C@H]1C(=O)N[C@H](C(=O)N[C@@H](Cc1ccccc1)C(N)=O)[C@@H](C)O)[C@@H](C)OP(=O)(O)O).
T10 chain: Ac-[pT]PTF-NH2
Kind of assay: fluorescence polarization competition.

B1: BRCA1 BRCT (protein)
chain: STERVNKRMSMVVSGLTPEEFMLVYKFARKHHITLTNLITEETTHVVMKTDAEFVCERTLKYFLGIAGGKWVVSYFWVTQSIKERKMLNEHDFEVRGDVVNGRNHQGPKRARESQDRKIFRGLEICCYGPFTNMPTDQLEWMVQLCGASVVKELSSFTLGTGVHPIVVVQPDAWTEDNGFHAIGQMCEAPVVTREWVLDSVALYQCQELDTYLI
B1 gave a Kd in assay [1] of 0.19 µM. For the same molecule, the IC50 is 35 µM in [2]; 1 µM in [3]; 3.2 µM in [4]; 30.1 µM in assay [5]; 1.6 µM in assay [6]; over 250 µM in [7].

B2: BRCA1 BRCT (protein)
chain: VNKRMSMVVSGLTPEEFMLVYKFARKHHITLTNLITEETTHVVMKTDAEFVCERTLKYFLGIAGGKWVVSYFWVTQSIKERKMLNEHDFEVRGDVVNGRNHQGPKRARESQDRKIFRGLEICCYGPFTNMPTDQLEWMVQLCGASVVKELSSFTLGTGVHPIVVVQPDAWTEDNGFHAIGQMCEAPVVTREWVLDSVALYQCQELDTYLIPQIP
Turning to B2, the IC50 was 15 µM in [8], 4.6 µM in assay [9], over 250 µM in assay [10] and over 250 µM in [11].
